Data from patent US8822645B2, “Prostaglandin E2 dual variable domain immunoglobulins and uses thereof” (AbbVie Inc., priority 2008, dated 2014).

What was measured:
[1] = test system: C57BL6/N mice, LPS/D-Galactosamine-induced lethality; test: LPS-D-galactosamine-induced lethality; assay type: in vivo, mouse; details: 12 mg/kg IP
Description: Saline alone was used as a negative control. Another group received […] 8C11-1E10, an anti-mouse TNF monoclonal antibody, as a positive control.
At the time of challenge, the mice were injected i.p. with 500 μL dose volume of saline containing 100 ng/mouse LPS (Sigma L4130, lot 095K4056, St. Louis, Mo.) and 20 mg/mouse D-Galactosamine (Sigma G-0500, lot 048K1547, St. Louis, Mo.). The mice were then monitored for lethality twice a day for 48 hours. At 48 hours the remaining surviving mice were sacrificed and bled for plasma antibody levels.

[2] = test system: PGE2 / human EP4 receptor in HEK293 Gα16 cells; test: EP4 bioassay (Ca++ flux, neutralization of PGE2); assay type: cell-based; details: PGE2 VD in N-terminal position; EP4 bioassay, Ca++ flux; read-out: N-terminal VD PGE2 Neutralization EC50
Description: The ability of anti-PGE2 antibodies and anti-PGE2 containing DVD-Ig molecules to inhibit the cellular response of PGE2 was determined in a Ca++ flux assay in HEK293 Gα16 cells stably transfected with human EP4 receptor. Cells were plated in black/clear poly-D-lysine plates, (Corning #3667, Corning, N.Y.) and incubated with Ca++-sensitive dye (Molecular Devices) for 90 minutes. Stock PGE2 (in 200 proof ethanol) was diluted with FLIPR buffer (containing 1×HBSS (Invitrogen, Carlsbad, Calif.), 20 mM HEPES (Invitrogen, Carlsbad, Calif.), 0.1% BSA (Sigma, St. Louis, Mo.) and 2.5 mM Probenecid (Sigma, St. Louis, Mo.)). Anti-PGE2 antibodies, DVD-Ig molecules or isotype matched control antibodies were also pre-diluted in FLIPR buffer. 25 μl of PGE2 or pre-incubated PGE2/antibody mixture or pre-incubated PGE2/DVD-Ig molecule mixture was added to the wells pre-plated with cells. A dose response of PGE2 was done by a serial titration of PGE2 and was determined using FLIPR1 or Tetra (Molecular Devices). EC50 was determined using GraphPad Prism 5 (GraftPad Software, La Jolla, Calif.). […] Ca++ flux was monitored using FLIPR1 and data was analyzed using GraphPad Prism 5.
The ability of anti-PGE2 antibodies and anti-PGE2 containing DVD-Ig molecules to inhibit the cellular response of PGE2 was determined in a Ca++ flux assay using stably transfected human EP4 in HEK293 Gα16 cells. Cells were plated in black/clear Poly-D-Lysine plates, (Corning #3667) and incubated with Ca++-sensitive dye (Molecular Devices) for 90 minutes. Stock PGE2 (in 200 proof ethanol) was diluted with FLIPR buffer (containing 1×HBSS, 20 mM HEPES, 0.1% BSA and 2.5 mM Probenecid). Anti-PGE2 antibodies, DVD-Ig molecules or isotype matched control antibodies were also pre-diluted in FLIPR buffer. 25 μl of PGE2 or pre-incubated PGE2/antibody mixture or pre-incubated PGE2/DVD-Ig molecule mixture was added to the wells pre-plated with cells. A dose response of PGE2 was done by a serial titration of PGE2 and was determined using FLIPR1 or Tetra (Molecular Devices). EC50 was determined using GraphPad Prism 5. […] Ca++ flux was monitored using FLIPR1 and data was analyzed using GraphPad Prism 5.

[3] = PGE2-biotinamide ELISA (PGE2 binding); details: PGE2 VD in N-terminal position, read-out: Direct Bind ELISA N-terminal VD EC50
Description: (§1) Enzyme linked immunosorbent assays to screen for anti-PGE2 antibodies or anti-PGE2 containing DVD-Ig molecules that bind prostaglandin E2 were performed as follows. ELISA plates (Costar 3369, Corning, N.Y.) were coated with 50 μl of anti-host Fc IgG (Sigma, St. Louis, Mo.) at 2 μg/ml in PBS (Invitrogen Carlsbad, Calif.). Following an overnight incubation at 4° C., the plate was blocked with 200 μl Superblock (Pierce #37535, Rockford, Ill.). The IgG or DVD-Ig containing samples were diluted to 1 μg/ml in Assay Buffer (10% Superblock in PBS containing 0.05% Surfactamps (Pierce #37535, Rockford, Ill.) and incubated on the plate at 50 μl/well for 1 hour at room temperature. Following the incubation, plates were washed four times with TTBS (Tween-Tris Buffered Solution). For PGE2 binding, PGE2-biotinamide (Cayman Chemicals, Ann Arbor, Mich.) was diluted to 30 nM and serially diluted in Assay Buffer. The titration curve was added to each IgG or DVD-Ig sample at a volume of 50 μl/well and incubated for 1 hour at room temperature. The plates were washed as previously described and 50 μl/well of 1:5000 dilution of streptavidin polyhrp40 (Fitzgerald Industries, Concord, Mass.) in Assay Buffer was added and incubated for 45 minutes at room temperature. A final wash step was performed and the plates were developed using a single step TMB system (Sigma #T8665, St. Louis, Mo.) and 2N H2SO4. Plates were read at 450 nm on a Molecular Devices Spectramax plate reader (Sunnyvale, Calif.). EC50 was determined using GraphPad Prism 5 (GraphPad Software, La Jolla, Calif.) (FIG. 2).
as §1, with “ELISA” for “Enzyme linked immunosorbent assays to screen for anti-PGE2 antibodies or anti-PGE2 containing DVD-Ig molecules that bind prostaglandin E2 were performed as follows. ELISA”, “(Invitrogen,” for “(Invitrogen”, “IgG” for “IgG or DVD-Ig”, “Solution).” for “Solution). For PGE2 binding,”, “Calif.).” for “Calif.) (FIG. 2).”

[4] = Size exclusion chromatography, percent monomer of parent antibodies and DVD-Ig constructs; assay type: physicochemical
Description: Antibodies were diluted to 2.5 mg/mL with water and […] is analyzed on a Shimadzu HPLC system using a TSK gel G3000 SWXL column (Tosoh Bioscience, cat#k5539-05k). […] The HPLC system operating conditions are the following: […]

[5] = test system: stable cell lines overexpressing a cell-surface antigen of interest or human tumor cell lines; test: Flow cytometry (FACS) binding to cell surface antigen; assay type: cell-based; details: IL-6R VD in C-terminal position; 2 μg/mL
Description: Stable cell lines overexpressing cell-surface antigen of interest or human tumor cell lines were harvested from tissue culture flasks and resuspended in phosphate buffered saline (PBS) containing 5% fetal calf serum (PBS/FCS). Prior to staining, human tumor cells were incubated on ice with human IgG at 200 μg/ml in PBS/FCS. 1-5×10^5 cells were incubated with antibody or DVD-Ig (1-2 μg/mL) in PBS/FCS for 30-60 minutes on ice. […] After 30 minutes incubation on ice, cells were washed twice and resuspended in PBS/FCS. Fluorescence was measured using a Becton Dickinson FACSCalibur (Becton Dickinson, San Jose, Calif.).
Stable cell lines overexpressing a cell-surface antigen of interest or human tumor cell lines were harvested from tissue culture flasks and resuspended in phosphate buffered saline (PBS) containing 5% fetal bovine serum (PBS/FBS). Prior to staining, human tumor cells were incubated on ice with (100 μl) human IgG at 5 μg/ml in PBS/FCS. 1-5×10^5 cells were incubated with antibody or DVD-Ig (2 μg/mL) in PBS/FBS for 30-60 minutes on ice. […] After 30 minutes incubation on ice, cells were washed twice and resuspended in PBS/FBS. Fluorescence was measured using a Becton Dickinson FACSCalibur (Becton Dickinson, San Jose, Calif.).
The geometric mean is the n root of the multiplication product of n fluorescent signals (a1×a2×a3 . . . an). […]

Molecule | % Survival [1] [%] | Mean Plasma Ab Concentration [1] [µg/mL] | EC50 [2] [pM] | EC50 [3] [pM] | % Monomer (purity) [4] [%] | FACS Geometric Mean C-terminal [5]
8C11: murine anti-mouse TNFα monoclonal antibody clone (antibody, V domains shown) VH: EFQLQQSGPELVKPGASVRISCKASGYSFTDYNMNWVKQSNGKSLEWVGVINPNYGSSTYNQKFKGKATLTVDQSSSTAYMQLNSLTSEDSAVYYCARKWGQLGRGFFDVWGTGTTVTVSS VL: QIVLSQSPAILSASPGEKVTMTCRASSSVSYMHWFQQKPGSSPKPWIYATSNLASGVPARFSGSGSGTSYSLTISRVEAEDAATYYCQQWSSSPLTFGAGTKLELKR | 100 | 65 ± 4.0 | – | – | – | –
DVD151: DVD-Ig construct listed in Table 4 (antibody) VH: EVQLVQSGAEVKKPGASVKVSCKASGYTFTKYWLGWVRQAPGQGLEWMGDIYPGYDYTHYNEKFKDRVTLTTDTSTSTAYMELRSLRSDDTAVYYCARSDGSSTYWGQGTLVTVSSASTKGPEVQLQESGPGLVRPSQTLSLTCTVSGYSITSDHAWSWVRQPPGRGLEWIGYISYSGITTYNPSLKSRVTMLRDTSKNQFSLRLSSVTAADTAVYYCARSLARTTAMDYWGQGSLVTVSS VL: DVLMTQTPLSLPVTPGEPASISCTSSQNIVHSNGNTYLEWYLQKPGQSPQLLIYKVSNRFSGVPDRFSGSGSGTDFTLKISRVEAEDVGVYYCFQVSHVPYTFGGGTKVEIKRTVAAPDIQMTQSPSSLSASVGDRVTITCRASQDISSYLNWYQQKPGKAPKLLIYYTSRLHSGVPSRFSGSGSGTDFTFTISSLQPEDIATYYCQQGNTLPYTFGQGTKVEIKR | – | – | 36 | 1520 | 92.7 | 0.21
